Source: the DeepSol protein solubility set

assay: soluble on expression in E. coli; label from the status in PepcDB or PDB records

Soluble on expression in E. coli, not soluble:
MGSDKIHHHHHHMLKSQEIRQKAPELDSLRLGSGWKSEELNKAQIIIESSFGHSHPGSAHLDTLVDEAFKSIDDNGGRGAKYFVTDICDGETQGHDGMNYSLASRDIMTNLMEIHVQATPFDAGIFIASCDKAVPAHLMAIARLDMPSILVPGGIMNAGPNMLTLEQIGTYNAQYERGEITKEQYEHYKQNACPSCGACSFMGTASTMQVMSEALGIALPGTALIPVTSKELKLAAKNAGKQILKLIELNIKPSEIMTKKAFENAIMVHAAIAGSSNCLLHIPAIAHELGMDIEPELFDEIHKKIPYILNIRPSGFYPGSYFWNAGGVPAIMEEIKEFLHLDVMTVTGKTLGENLEDLKNSGYYEEHDKLITSLGIKKEDVIRTKENPIQSQGAIAILKGNLAPGGAVVKHSAISKKLMQVVLKARVFNCEEDAIKSVLTKNIKPGDAVFVRYEGPKGSGMPEMFYTTEAIASDHELVDSTALITDGRFSGATRGPAIGHVSPEASEGGPIAFVQEGDLIKIDIPARKLDIIGTNGIEKSEKEIENILKERSQNWVKPAPRYTKGILGLYTRCASSPMKGGYME, MGSDKIHHHHHHMLMRDVIPQVLNRGTAMLTQDLLETPPQKTFHHAIDIYLKDSNAFMNTYFARYFEWQGICRERWFHECIHDNLLAAGGVFVTKRAHQEYVEETFPFQRVDCYLNTFQVKQCSAYLLFRFCVGGKPVSLGYQQIVFADRDKRISRFPHGIIERVKEYELVLPGLAS, MGSDKIHHHHHHMLPLPPYPLPNSIMWTQIDTHISQVTGEKFQSQQRRSVGGGCINQGYAVSNGEITYFVKLNLASQVAMFEAEALGLKEMLATASIRIPQPICWGVAENSSYIVLEWLELGNGNSNTSLRDAPRWEEMGRKLAAMHQASSSQGFGWKINNTIGSTPQINTWTADWTEFYIKHRLGYQFQLARRRGGSFPQQEKLLAAIRELLTHQVQPSLVHGDLWGGNAGCTASGEPVIFDPATYFGDREVDIAMTELFGGFPAAFYKGYNEVFPLDAGYEQRKTLYNLYHILNHFNLFGGGYASQANRMIDQILR, MGSDKIHHHHHHMLPMADQIQTLQEQVLQARSNGQKLNIVGGGTKSFMGRQGCAEAGTLSLAEHTGVVEYHPVELVLTVRAGTPLKEIEAVLAEQGQCLHFEPPHFGDASTIGGTLACNLSGPARPWAGSVRDQVLGIRLLNGKGEHLRFGGQVMKNVAGYDVSRLQAGAMGTLGVITEISLKVMPKPAATTTLVREMTMDEVVEYMNRRAGEPKPITGACWVDGKVYLRLAGAKSAVEATAEQWGGQVLADGEQFWRQVQDMQHPFFDDPELPLWRFSVDSTAKTPELDGPWMIDWAGSQRWYRGQASLDQLEPLARAAGGQVSLFRGGDRTGEVMHGQPQALKTIQQRVKKSFDPDAIFNPGRLYSWL, MGSDKIHHHHHHMLPSAPCSGWSHHTLKPLGAGTRGTGYIMPVTNMIHLDNRDHADRQSHGQPAHVLMLEQSPGVVPKSLLGKGLTYLREQWPKLIRYVENGSWPISNNPCENAIRLFCVGRRGWLFSDTVDGANACANLYTLVETSKTNGIDLYRYLAWLFRRLPLAKTVDDYDALLPWRMPVDIHVDPFDKERSTIDHEQENHSAGSLSA, MGSDKIHHHHHHMLQAQLKPANLVVTCNQTHSTMAQTDAPSTPAKPVIHAKQTAESGSSAQLRHLSRYLVRNLGMLNAAFGDLPLSPVQAHALFEIGKQPLTIKELACKLSIDKSNASRAIKHLIDKNLAQSQIHPRDSRCLVVQLTPAGKKLLLKLDTQQNQLFQEILAQLTPAQTSQIEEALMLYNQAVHNAKHQSGCHIRQATAQDDAAIAKVIRDVSAEYGLTADKGYSVADPTLDCLSQIYSQAGANYWIIELDGRILGGAGIAPLANNEGVCELQKMYFMPEIRGKGLATRVALMALDFARETGYQSCYLETTAALNEAVKLYEKLGFVHLSAPLGNTGHDACEMPMLLELNQ, MGSDKIHHHHHHMLQPHEMHLAGDLLDFLRDPSTAIARDFATQATLMRIASGATVFAEGDECSFFAILADGQIRVFKIGETGREITLYRFGRGESCILTTSCVLSNHQFPAIAVVEREATAFLVGQAIFRDWIERYSAWRDYVFQLLSRRLASVMAIIDEIAFRRVDVRLAAFLLRQAVGDPPTLNLTHQQIAAELGTSREVVSRILADFSEEGLISSSRGQITVCDRTRLYQRSEAR, MGSDKIHHHHHHMLRVAVVGGGPSGSCAAEVLAKAGIQTWLFERKLDNAKPCGGAIPLCMVDEFDLPESIIDRKVRNMRMISPSNREVDITLDKVYSPDDKSEYIGMCRREVMDAFMRDRAASLGTNLINGLVTKIDTGSNRQGPYTITYSDYSTGKSTGEAKSLEVDLIIGADGANSRVATAMDAGDYNVAIAFQERIKLPNEEMAYYEDLAEMYVGTDVSPDFYGWVFPKYDHVAVGTGTMQKNQTLIKSLQKGVRERAKKRLVHGEVIKVEAHPIPEHPRPRRVVGRMALVGDAAGYVTKSSGEGIYFAAKSGRMCAEQIVESSRSGELIPSEADLKKYLKKWDRKYGSTYIVLSILQAIFYSNDTAREAFVAMCDDMDVQRLTFDSYLYKKVVAMNPWQQIKLTLLTVDALARGIFRNQTSYKPVPSAVRSDEEVNAMLEIKTITGGIKVDNNKDASKQNLASEQEERDPAVSNKS, MGSDKIHHHHHHMLSCHLTSPNLVPCETVDNRSSFQILFDHESIIKTYVPVMKLRFRQLQAFHAIVETGTVTGAAGLLGISQPGVSNLLSQLEDQAGMALFERLHGRLLPTPEAELLFAEVDTVMRGMSKVTQTMVDLKTRKLGQLQIASQHAMSFGFMPRLIARFASDRPELNISFQSQYSSKVQEWVWNGLFEIGVCEMPLLYDTLTVYPLYVETMLALHKDNPLARHEVLTPELLAGEPFIVMGQDHMTHRRLREAFQDAGVPLRTRVHSHLFKNLLSFVQEGMGVALLDRFMFDYDMQGDVITRPFRPTIRMDMCVITSKSRPMSQLGKEFLDLLLGELQHYSVEGRPLVPAERKRR, MGSDKIHHHHHHMLSVAIPKAKPLLKQEKVATTAQKNQKEVIHYTAIGDSLTEGIGDLTNSGGFVPIVADDLKEHYNLNGVQTDNFGKNGDRSDQILKRIKEKPEIQKGLASADVITLTVGGNDLMKVISSNIFDLKVSSFNRPQKAYQRRVRRLLEEIREYNEKAPIYVLGIYNPFYLNFSEITEMQEIVDNWNQATEEMVQEQKRAYFIPINDLLYKGRGDEVGVTGGDSETTGSSASKEDLNNLLYEEDRFHPNNLGYQIMAGAVRDEMVKTEKEWITKSEGSE, MGSDKIHHHHHHMLTKTIIGLDVGRSAVKVVAFANGLYYRLTFPSLVSPAFPINDEGTAARAELETVEVLGKRYFTGDTARLQGGVNMSVGLSHDWTNGPEYLALVASTMKRLAALGVPGLDSPYIVLGTPASLFGRQKEALAQRTQAVVAAEMKVLPQPMGAYCNFFMDARGVPIKDRQKRPDGKNRSWAVVEVGHYTTDFLLMREGNYIERAAVSCEGVHFAAENLVRILAAKDIQATPLTAEEALRTGVIVDFGERRIEAQVAEAVDHVVQKIMTMADSVLSNDVRSLDGVLLAGGGAPILAAGLQKKWPHTVLLENPRMAVADGFCRYGVGQMLRRAMAAEKATA, MGSDKIHHHHHHMLTTPEMREQFRNDGVTIFRNCLNEAQLAQCYDGFKWDMANPGPHVYKGGLIGTTLHTHIDIANPEAKSELDDLAAALPFGQIFQELWDSKNVWYFAEEIFAKEGGKSGRGPWHQDTANLPWAGRHWGNAWISFQKLPKKNSLEIVRGSHLGIQYDGASFDSAEDPTDPLYGDGTYPRLPHIDNELARDPNSWDIVSFDINPGDIVLLHPRSLHGGAQVDADCPTRHTLVLRFFGDDATFRELPTCNPKYARNGPLFQKEMAKLNQGDAFRSPVFRQVAGV, MGSDKIHHHHHHMLVKKISPRGYCYGVVDAMKLAQQAALNDNLPRPIHILGMIVHNAHVTREFERMGVLTVDGPDRLEALETIKEGTVIFTAHGISPAVYARAAEKKLTVVDATCPDVTRTHDLIRSVVADDYEVIYVGKHGHPEPEGAVGVAPEHVHLIEKVEDIEALPAHLADKKIIVTNQTTMSQWDVQALMEHVRKKYPHVEVHNEICNATQVRQEAVAEQAGDCDLVIVVGDPRSNNSNRLAQVSFDIAATPAHRIGDLTELDLSWLDGVNQVGVTSGASTPTPITKKVIDFLQQYDPADISTHDKTPFLELRRILPKVKIL, MGSDKIHHHHHHMLVNAYFIKLDSCQLPPRDLAVSVFLNLSKFNMPLTMPHLLELFVDSYFIEKKKRLRQCLQEPLDCGPVFHFSEPWEGLLSGYCTVLEDPLDGYFKLYYRGLSDGNLECSDGEVTCLALSHNGVEWFRPNLGLHKWLNRKSTNIILANNTPDSHNFTPFLDSSPTTLSHQRYKALAGVAPSGLNAYFSADGINWTNPYSKPVLTTGMFDSQNVAFWSSSEQKYVCFMRTWTGEGFSGIRTISRSTSTDFSSWTVPRRMSFGRIPLEHLYTNQTQPYPRAQQIYIGLAARFMPERQVITTEEALELSVDPSYYRDCSDVVLITSRGGNRYHRAVRQAFLKPGIGLENWVSRTNFPALGFIHTKPDEISFYMNKNYAQPNAYLSRFSFPLDRLGYLEASDSYGELITKSIPISSQDDLHLNLSTSAAGSCFVALLDENDATVSQFDMSSCLELIGNELSKPVRWLSSNGVSLRIGDSGLSSVKLHIRLLDARLFAFSLCSTDR, MGSDKIHHHHHHMLYQLHEFNRSLLNPLMHWAEASSRLFTDPASPLAYTPYAQRIAAGYELLYRLGKQYEKPNFNIESVLVNGKTVAIVEEETEKKSFCTLIHFRKKLSAKEFAALKQPVVLLVAPLSGHHSTLLRDTVRSLLQDHDVYITDWTDARMVPLAEGPFHLHDYVYYIQDFIRRLGPDLHVISVCQPTVPVLAAISLMASERDPRLPKTMTMMGGPIDARKSPTQVNDLAVEKPHAWFENQVIYSVPPSYPGFGRKVYPGFLQHAGFIAMNPGRHAQSHWDFYMHLREGDNESAEEHRKFYDEYNAVLDMPAEYYLETIKTVFQEHRLPLGTWEIEGKLVRPQDIKSVALFTIEGEKDDISGAGQTHAAQDLCSALPQSDKQQFTAPQCGHYGIFSGRKWREIIAPKIGEFITRYS, MGSDKIHHHHHHMMFEDTHDEHVLLTPGPTPIHPRAQKALIRSMLGHMDPEVFALNSEIQRDLREMYGTEPEGFTALLAGTGSLGMEAGFANLVEAGDEVLVCANGSFGRRMAEMAARYGAKVRLVTAPLGEAIKPADVAAHLDDDISMVAVVHGETSTGVLNPVPEIAELVRGSGALLTVDAVTTAGMEPFHMQQWGVDYAYTGAQKCLSAPPGLAPVAISERAFSRFAARRTQTPLWYCDFEGLRDYWVNHTYHHTVPVNLHFAFHAALRAALEEGLEARQARVRLMGRVIERTLAPLGFSHYVRRPEDRLPTVLALRLPEGFDDAGLRQALRQREISVTGGLGPTAGVIWRLGLMGESARPGPYHRLMTELEDLLGAPGLLDRYEAVLAEEQRGELALA, MGSDKIHHHHHHMMHDDQVNIDIDIARKMIRDQFPQYRHEDITSVGSSGTVNAIFRIGSKSAARFPLRAMNPTECADMLRSEAAAMVEIGKHCLFPTPQPIGIGEPGPRYPMPWALQTWIEGEVATPHGLSGSTMFALDLARLVASLRQADTRGRRFDGQGRGGHLPDHDDWMAVCLENSEGLLDVARLRDLWARLRELPCAGSVVMSHKDLIPANLLVQGERLVGVLDGGSFGPADPSLDLVVGWHLLDRERRAAFRSGLQVEDLLWKRGAAWAFQQAMGLVWYYRRTNRAMSALGRSTLSRILADPDI
